Assay results published in patent US20240109958A1.

These binders were tested against internal GGX peptides (genome-encoded GGX sequences exposed by trypsin digestion of HEK293 lysate) (assay: immunoaffinity enrichment from trypsin-digested HEK293 lysate, LC-MS/MS; count of internal GGX sequences enriched).

| Shared sequences [sequences] | Unique sequences [sequences] | Binder |
| --- | --- | --- |
| 8 | 8 | anti-GGX monoclonal antibody 2B12 (rabbit IgG) (antibody, V domains shown) VH: QSVEESGGGLVTPGGALTLTCTASGFSLNRHWMNWVRQAPGKGLEWIGAINESGRTYYATWAKGRFFISKTTTTVDLKITSPTTADTATYFCVRDDDVSNFWGPGTLVTVSS VL: DPMLTQTPSSVSAAVGGTVSINCQSTKSVYKYNHLSWYQQKPGQPPKQLIFPASTLQSGVPSRFSGSGSGTQFTLTISDVQCDDAATYYCLGLYDCRSGDCNVFGGGTKLEIKG |
| 14 | 41 | anti-GGX monoclonal antibody 2E9 (rabbit IgG) (antibody, V domains shown) VH: QKQLMESGGRLVTPGTPLTLTCKVSGFSLSSYYMNWVRQAPGKGLEWIGIMFPNGKIYYATWAKGRFTISKTSTTVDLKIISPTTEDTATYFCTGDDSGDVNIWGPGTLVTVSS VL: DIVLTQTASPVSAAVGGTVTINCQSSQSVYTNNRLAWYQQKPGQPAKEMIYGASTLPSGVSSRFKGSGSGTQFALTISDVQCDDAATYYCLGEFDCTSADCFVFGGGTEVVVKG |
| 20 | 47 | anti-GGX monoclonal antibody 2H2 (rabbit IgG) (antibody, V domains shown) VH: QSVEESRGRLVTPGTPLTLTCKVSGFSLSSYYMNWVRQAPGKGLEWIGIMFPNGKIYYATWAKGRFTISKTSTTVDLKIISPTTEDTATYFCTGDDSGDVNIWGPGTLVTVSS VL: DPMLTQTASPVSAAVGGTVTINCQSSQSVYSNNRLAWYQQKPGQPPKEMIYGASTLPSGVSSRFKGSGSGTQFTLTISDVQCDDAATYYCLGTYDCLSADCLAFGGGTEVVVKG |
